Our source for the IL-13-dependent TF-1 cell proliferation inhibition IC50 and Inhibitory Activity on TF-1 Cell Proliferation, IC50 values is patent publication EP4671274A1.

The test concerns the target recombinant His-tagged canine interleukin-13 (cIL-13) (canine) (UniProt Q9N0W9). The test can be described thus: cell-based or functional assay.

Sequence of recombinant His-tagged canine interleukin-13 (cIL-13) (canine) (Q9N0W9 other isoform, or with tags, fused parts or gaps): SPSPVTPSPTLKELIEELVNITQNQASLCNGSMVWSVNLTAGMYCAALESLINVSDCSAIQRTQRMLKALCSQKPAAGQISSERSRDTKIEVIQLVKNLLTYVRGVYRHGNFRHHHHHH

B1: mouse monoclonal antibody 32A10-#20 (antibody, from another filing, V domains shown)
VH: EVQLQQSGPELVKPGASVKVSCKTSGYSFTDYPIYWVRQSHGESLEWIGYIDPYNGGTTYNQNFKDKATLTVDKSSSTAFMHLNSLTSEDSAVYFCATAVVATDVMENWGQGTSVTVSS
VL: DIVLTQSQKFMSTSVGDRVSITCKASQNVRNAVAWFQQKPGQSPKALIYLASNRYTGVPDHFTGSGSGTDFTLTISNVQSEDLADYFCLQHWNYPLTFGAGTKLELK
With B1, the IL-13-dependent TF-1 cell proliferation inhibition IC50 lay in the range of 2.9 to 4.2 nM and the Inhibitory Activity on TF-1 Cell Proliferation, IC50 worked out at 3.97 nM.
